Experimental data taken from doi:10.1101/2021.09.12.459962 (bioRxiv, 2021).

Molecular target: the molecule itself
Assay: AUC; sedimentation equilibrium of UDS1-His at 4 µM, 6000 to 9000 rpm, single-species model; monomers to dimer

B1: UDS1-His6 (natural protein, Aspergillus nidulans, UniProt Q5B1I5 1-941, looked up)
chain: MNGFDFRSSQSSYGDPRHFSDASYGVPQPPPTKVLLDGYRDALGPANAEKSLYNSANPTSHPRRSIPPSANDPVAMYLLTETAMGDSVNYEILSVEEVEGLKKELRVLSNRMNAAKRKLALELKLRDAAMSLSRLHHKEEHDVDGSGRNEPNTDKTNEELVHINRKCEELSMDIWYSERKVQEIQKRLLEHTAGVLQLTHKGLKKNSKNGMPHTPESLSSSNTVDDFDDRSLYKASDPLDGPETYETRAPPPDNLAHDNSMQETERKLESMSSRLRDMLLQLDPDSEFSQIPQPSTSGDSFEPSAMIDAHLRYIENGISALGSLPKADMASQSLDPVSEQQLVEMRTQLLSIMENPGLPRAQTLPTAPDPTDSDLAKHLTFLSVGINGLESRVEKLLEQKSILTTQIQQQRELNSKSDAERDAKIADLIEQLAHLRKELELAEREGQQSKEDHDLTLKELEDVRRELLESRETHSSRDLGNSKNEAQQHAEAEIARLQSVIQEIQQEKDEHCEAHRRAEAEIDRLQAVIHQIQQEKDEHREAHERAEAETTRLQTIVEEVQQEKDEQHEAHGRAVAEVTRLQDIIQKIEQEKIERHEADERAEAEIVRLRDTIREIQQEKEEHHEARVRLEGEVARLQGVIGQLQESAESRESAEQQVAQLEETIHQIRHDADIRIKEATDSRAQADAKIAQLEGAMNEVRESLESQLKEATEARNNAEENSTRLQKELTELERDVVRAQTELTMVKAELDGAYGTRAQRAAEAAADPALFHELDELKARNFEMAEELAALKAGKPGSGDVHNRVETLERELRETVDDYEAMTKASIEFEKERERFESMIDSLRDRCEQLETQLNEERISWMGANNSASSMGRDGPYETTSTMVLKNEFKKMMRDTRAENMKILKAEQEERRKLEAILRNLKREQANLSGKSNISRTVTAS
notes: UDS1, product of AN5595 of Aspergillus nidulans, 941 residues; UDS1 cDNA cloned as NheI/NotI in pET21b; Mr 106,857 Da; Dimer by sedimentation equilibrium; also called purified UDS1; bacterially expressed UDS1; source: E. coli BLB21 pRIL, purified (Ni-Sepharose, Superdex gel filtration)
stoichiometry N: 2
